From publication PMC3506575 come the findings set out here.

The assay concerns the target human GLP-2 Receptor (human) (UniProt O95838).
Chain of UniProt O95838 (O95838 whole entry): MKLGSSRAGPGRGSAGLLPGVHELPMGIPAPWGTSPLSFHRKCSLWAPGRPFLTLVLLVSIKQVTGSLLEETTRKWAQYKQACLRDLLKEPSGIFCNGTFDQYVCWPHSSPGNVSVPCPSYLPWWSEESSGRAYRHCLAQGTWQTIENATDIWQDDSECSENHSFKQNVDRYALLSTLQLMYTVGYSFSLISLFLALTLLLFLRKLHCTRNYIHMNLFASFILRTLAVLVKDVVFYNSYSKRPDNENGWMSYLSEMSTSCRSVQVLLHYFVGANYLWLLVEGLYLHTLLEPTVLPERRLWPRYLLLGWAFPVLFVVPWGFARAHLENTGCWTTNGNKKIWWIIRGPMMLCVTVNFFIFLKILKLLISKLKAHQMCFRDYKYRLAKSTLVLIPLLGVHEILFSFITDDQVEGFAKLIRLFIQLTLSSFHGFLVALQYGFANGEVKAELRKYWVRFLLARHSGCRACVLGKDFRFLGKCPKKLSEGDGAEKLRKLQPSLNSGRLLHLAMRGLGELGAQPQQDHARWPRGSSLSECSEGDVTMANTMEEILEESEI

B1: GLP2-2G-XTEN fusion protein (protein)
chain: HGDGSFSDEMNTILDNLAARDFINWLIQTKITDGGSPAGSPTSTEEGTSESATPESGPGTSTEPSEGSAPGSPAGSPTSTEEGTSTEPSEGSAPGTSTEPSEGSAPGTSESATPESGPGSEPATSGSETPGSEPATSGSETPGSPAGSPTSTEEGTSESATPESGPGTSTEPSEGSAPGTSTEPSEGSAPGSPAGSPTSTEEGTSTEPSEGSAPGTSTEPSEGSAPGTSESATPESGPGTSTEPSEGSAPGTSESATPESGPGSEPATSGSETPGTSTEPSEGSAPGTSTEPSEGSAPGTSESATPESGPGTSESATPESGPGSPAGSPTSTEEGTSESATPESGPGSEPATSGSETPGTSESATPESGPGTSTEPSEGSAPGTSTEPSEGSAPGTSTEPSEGSAPGTSTEPSEGSAPGTSTEPSEGSAPGTSTEPSEGSAPGSPAGSPTSTEEGTSTEPSEGSAPGTSESATPESGPGSEPATSGSETPGTSESATPESGPGSEPATSGSETPGTSESATPESGPGTSTEPSEGSAPGTSESATPESGPGSPAGSPTSTEEGSPAGSPTSTEEGSPAGSPTSTEEGTSESATPESGPGTSTEPSEGSAPGTSESATPESGPGSEPATSGSETPGTSESATPESGPGSEPATSGSETPGTSESATPESGPGTSTEPSEGSAPGSPAGSPTSTEEGTSESATPESGPGSEPATSGSETPGTSESATPESGPGSPAGSPTSTEEGSPAGSPTSTEEGTSTEPSEGSAPGTSESATPESGPGTSESATPESGPGTSESATPESGPGSEPATSGSETPGSEPATSGSETPGSPAGSPTSTEEGTSTEPSEGSAPGTSTEPSEGSAPGSEPATSGSETPGTSESATPESGPGTSTEPSEGSAPG
Turning to B1, the calcium flux (FLIPR) in a human GLP-2 receptor-expressing Chem-11 cell line, serial dilutions, EC50 of activation turned out to be 0.38 µM.
